Test results taken from patent publication US20170016905A1 (VAR2 PHARMACEUTICALS, published 2017).

B1: DBL1X-DBL2Xb (FCR3, E. coli, as the column stands) (other)
chain: HSDSGKYDPCEKKLPPYDDNDQWKCQQNSSDGSGKPENICVPPRRERLCTYNLENLKFDKIRDNNAFLADVLLTARNEGEKIVQNHPDTNSSNVCNALERSFADLADIIRGTDQWKGTNSNLEKNLKQMFAKIRENDKVLQDKYPKDQKYTKLREAWWNANRQKVWEVITCGARSNDLLIKRGWRTSGKSDRKKNFELCRKCGHYEKEVPTKLDYVPQFLRWLTEWIEDFYREKQNLIDDMERHREECTREDHKSKEGTSYCSTCKDKCKKYCECVKKWKTEWENQENKYKDLYEQNKNKTSQKNTSRYDDYVKDFFEKLEANYSSLENYIKGDPYFAEYATKLSFILNPSDANNPSGETANHNDEACNCNESGISSVGQAQTSGPSSNKTCITHSSIKTNKKKECKDVKLGVRENDKDLKICVIEDTSLSGVDNCCCQDLLGILQENCSDNKRGSSSNDSCDNKNQDECQKKLEKVFASLTNGYKCDKCKSGTSRSKKKWIWKKSSGNEEGLQEEYANTIGLPPRTQSLYLGNLPKLENVCEDVKDINFDTKEKFLAGCLIVSFHEGKNLKKRYPQNKNSGNKENLCKALEYSFADYGDLIKGTSIWDNEYTKDLELNLQNNFGKLFGKYIKKNNTAEQDTSYSSLDELRESWWNTNKKYIWTAMKHGAEMNITTCNADGSVTGSGSSCDDIPTIDLIPQYLRFLQEWVENFCEQRQAKVKDVITNCKSCKESGNKCKTECKTKCKDECEKYKKFIEACGTAGGGIGTAGSPWSKRWDQIYKRYSKHIEDAKRNRKAGTKNCGTSSTTNAAASTDENKCVQSDIDSFFKHLIDIGLTTPSSYLSNVLDDNICGADKAPWTTYTTYTTTEKCNKERDKSKSQSSDTLVVVNVPSPLGNTPYRYKY
notes: The value stands in column 4 (E. coli, under FCR3); The column may be shifted, in which case the protein could be the 3D7 baculovirus one; Range derived by me from the FCR3 primers (HSDSGK ... PYRYKY)
B2: ID1-DBL2Xb (3D7, Baculo) (other)
chain: LSFILNSSDANNPSEKIQKNNDEVCNCNESGIASVEQEQISDPSSNKTCITHSSIKANKKKVCKHVKLGVRENDKDLRVCVIEHTSLSGVENCCCQDFLRILQENCSDNKSGSSSNGSCNNKNQEACEKNLEKVLASLTNCYKCDKCKSEQSKKNNKNWIWKKSSGKEGGLQKEYANTIGLPPRTQSLCLVVCLDEKGKKTQELKNIRTNSELLKEWIIAAFHEGKNLKPSHEKKNDDNGKKLCKALEYSFADYGDLIKGTSIWDNEYTKDLELNLQKIFGKLFRKYIKKNNTAEQDTSYSSLDELRESWWNTNKKYIWLAMKHGAGMNSTTCCGDGSVTGSGSSCDDIPTIDLIPQYLRFLQEWVEHFCKQRQEKVKPVIENCKSCKESGGTCNGECKTECKNKCEVYKKFIEDCKGGDGTAGSSWVKRWDQIYKRYSKYIEDAKRNRKAGTKNCGPSSTTNAAENKCVQSDIDSFFKHLIDIGLTTPSSYLSIVLDDNICGADKAPWTTYTTYTTTEKCNKETDKSKLQQCNTAVVVNVPSPLGNTPHGYKY
notes: The start at 16 is derived by me from the forward primer (LSFILN); not shown: V5 and His tag at the C-terminal (modified pAcGP67-A)
B3: ID1-ID2a (FCR3, Baculo) (other)
chain: NYIKGDPYFAEYATKLSFILNPSDANNPSGETANHNDEACNCNESGISSVGQAQTSGPSSNKTCITHSSIKTNKKKECKDVKLGVRENDKDLKICVIEDTSLSGVDNCCCQDLLGILQENCSDNKRGSSSNDSCDNKNQDECQKKLEKVFASLTNGYKCDKCKSGTSRSKKKWIWKKSSGNEEGLQEEYANTIGLPPRTQSLYLGNLPKLENVCEDVKDINFDTKEKFLAGCLIVSFHEGKNLKKRYPQNKNSGNKENLCKALEYSFADYGDLIKGTSIWDNEYTKDLELNLQNNFGKLFGKYIKKNNTAEQDTSYSSLDELRESWWNTNKKYIWTAMKHGAEMNITTCNADGSVTGSGSSCDDIPTIDLIPQYLRFLQEWVENFCEQRQAKVKDVITNCKSCKESGNKCKTECKTKCKDECEKYKKFIEACGTAGGGIGTAGSPWSKRWDQIYKRYSKHIEDAKRNRKAGTKNCGTSSTTNAAASTDENKCVQSDIDSFFKHLIDIGLTTPSSYLSNVLDDNICGADKAPWTTYTTYTTTEKCNKERDKSKSQSSDTLVVVNVPSPLGNTPYRYKYACQCKIPTNEETCDDRKEYMNQWSCGSARTMKRGYKNDNYELCKYNGVDVKPTTVRSNSSKLD
notes: The primers (NYIKGD ... NSSKLD) match its two ends; not shown: V5 and His tag at the C-terminal (modified pAcGP67-A)
B4: ID1-ID2a (FCR3, E. coli) (other)
chain: B3 chain
notes: Made in E. coli
B5: DBL1-ID2a (3D7, Baculo) (other)
chain: HSDSGTNDPCDRIPPPYGDNDQWKCAIILSKVSEKPENVFVPPRRQRMCINNLEKLNVDKIRDKHAFLADVLLTARNEGERIVQNHPDTNSSNVCNALERSFADIADIIRGTDLWKGTNSNLEQNLKQMFAKIRENDKVLQDKYPKDQNYRKLREDWWNANRQKVWEVITCGARSNDLLIKRGWRTSGKSNGDNKLELCRKCGHYEEKVPTKLDYVPQFLRWLTEWIEDFYREKQNLIDDMERHREECTSEDHKSKEGTSYCSTCKDKCKKYCECVKKWKSEWENQKNKYTELYQQNKNETSQKNTSRYDDYVKDFFKKLEANYSSLENYIKGDPYFAEYATKLSFILNSSDANNPSEKIQKNNDEVCNCNESGIASVEQEQISDPSSNKTCITHSSIKANKKKVCKHVKLGVRENDKDLRVCVIEHTSLSGVENCCCQDFLRILQENCSDNKSGSSSNGSCNNKNQEACEKNLEKVLASLTNCYKCDKCKSEQSKKNNKNWIWKKSSGKEGGLQKEYANTIGLPPRTQSLCLVVCLDEKGKKTQELKNIRTNSELLKEWIIAAFHEGKNLKPSHEKKNDDNGKKLCKALEYSFADYGDLIKGTSIWDNEYTKDLELNLQKIFGKLFRKYIKKNNTAEQDTSYSSLDELRESWWNTNKKYIWLAMKHGAGMNSTTCCGDGSVTGSGSSCDDIPTIDLIPQYLRFLQEWVEHFCKQRQEKVKPVIENCKSCKESGGTCNGECKTECKNKCEVYKKFIEDCKGGDGTAGSSWVKRWDQIYKRYSKYIEDAKRNRKAGTKNCGPSSTTNAAENKCVQSDIDSFFKHLIDIGLTTPSSYLSIVLDDNICGADKAPWTTYTTYTTTEKCNKETDKSKLQQCNTAVVVNVPSPLGNTPHGYKYACQCKIPTNEETCDDRKEYMNQWSCGSARTMKRGYKNDNYELCKYNGVDVKPTTVRSNSSKLD
notes: also called DBL1X-ID2a; not shown: V5 and His tag at the C-terminal (modified pAcGP67-A)
B6: DBL1-ID2a (FCR3, Baculo) (other)
chain: HSDSGKYDPCEKKLPPYDDNDQWKCQQNSSDGSGKPENICVPPRRERLCTYNLENLKFDKIRDNNAFLADVLLTARNEGEKIVQNHPDTNSSNVCNALERSFADLADIIRGTDQWKGTNSNLEKNLKQMFAKIRENDKVLQDKYPKDQKYTKLREAWWNANRQKVWEVITCGARSNDLLIKRGWRTSGKSDRKKNFELCRKCGHYEKEVPTKLDYVPQFLRWLTEWIEDFYREKQNLIDDMERHREECTREDHKSKEGTSYCSTCKDKCKKYCECVKKWKTEWENQENKYKDLYEQNKNKTSQKNTSRYDDYVKDFFEKLEANYSSLENYIKGDPYFAEYATKLSFILNPSDANNPSGETANHNDEACNCNESGISSVGQAQTSGPSSNKTCITHSSIKTNKKKECKDVKLGVRENDKDLKICVIEDTSLSGVDNCCCQDLLGILQENCSDNKRGSSSNDSCDNKNQDECQKKLEKVFASLTNGYKCDKCKSGTSRSKKKWIWKKSSGNEEGLQEEYANTIGLPPRTQSLYLGNLPKLENVCEDVKDINFDTKEKFLAGCLIVSFHEGKNLKKRYPQNKNSGNKENLCKALEYSFADYGDLIKGTSIWDNEYTKDLELNLQNNFGKLFGKYIKKNNTAEQDTSYSSLDELRESWWNTNKKYIWTAMKHGAEMNITTCNADGSVTGSGSSCDDIPTIDLIPQYLRFLQEWVENFCEQRQAKVKDVITNCKSCKESGNKCKTECKTKCKDECEKYKKFIEACGTAGGGIGTAGSPWSKRWDQIYKRYSKHIEDAKRNRKAGTKNCGTSSTTNAAASTDENKCVQSDIDSFFKHLIDIGLTTPSSYLSNVLDDNICGADKAPWTTYTTYTTTEKCNKERDKSKSQSSDTLVVVNVPSPLGNTPYRYKYACQCKIPTNEETCDDRKEYMNQWSCGSARTMKRGYKNDNYELCKYNGVDVKPTTVRSNSSKLD
notes: also called DBL1X-ID2a; wild-type protein; not shown: V5 and His tag at the C-terminal (modified pAcGP67-A)
B7: DBL1-ID2a (FCR3, E. coli) (other)
chain: B6 chain
notes: Made in E. coli
B8: ID1-ID2a (3D7, Baculo) (other)
chain: LSFILNSSDANNPSEKIQKNNDEVCNCNESGIASVEQEQISDPSSNKTCITHSSIKANKKKVCKHVKLGVRENDKDLRVCVIEHTSLSGVENCCCQDFLRILQENCSDNKSGSSSNGSCNNKNQEACEKNLEKVLASLTNCYKCDKCKSEQSKKNNKNWIWKKSSGKEGGLQKEYANTIGLPPRTQSLCLVVCLDEKGKKTQELKNIRTNSELLKEWIIAAFHEGKNLKPSHEKKNDDNGKKLCKALEYSFADYGDLIKGTSIWDNEYTKDLELNLQKIFGKLFRKYIKKNNTAEQDTSYSSLDELRESWWNTNKKYIWLAMKHGAGMNSTTCCGDGSVTGSGSSCDDIPTIDLIPQYLRFLQEWVEHFCKQRQEKVKPVIENCKSCKESGGTCNGECKTECKNKCEVYKKFIEDCKGGDGTAGSSWVKRWDQIYKRYSKYIEDAKRNRKAGTKNCGPSSTTNAAENKCVQSDIDSFFKHLIDIGLTTPSSYLSIVLDDNICGADKAPWTTYTTYTTTEKCNKETDKSKLQQCNTAVVVNVPSPLGNTPHGYKYACQCKIPTNEETCDDRKEYMNQWSCGSARTMKRGYKNDNYELCKYNGVDVKPTTVRSNSSKLD
notes: not shown: V5 and His tag at the C-terminal (modified pAcGP67-A)

Molecular target: T1, CSPG (bovine) (D8428, Sigma) (bovine, UniProt P21793 31-360, carries chondroitin sulfate A (CSA) glycosaminoglycan chain(s); the filing attributes the binding of VAR2CSA to this glycan)
T1 construct: also called chondroitin sulfate proteoglycan; CSA proteoglycan
Experiment: quartz crystal microbalance (Attana A100), CSPG coated, 1:1 fit

T1 sequence (P21793 31-360): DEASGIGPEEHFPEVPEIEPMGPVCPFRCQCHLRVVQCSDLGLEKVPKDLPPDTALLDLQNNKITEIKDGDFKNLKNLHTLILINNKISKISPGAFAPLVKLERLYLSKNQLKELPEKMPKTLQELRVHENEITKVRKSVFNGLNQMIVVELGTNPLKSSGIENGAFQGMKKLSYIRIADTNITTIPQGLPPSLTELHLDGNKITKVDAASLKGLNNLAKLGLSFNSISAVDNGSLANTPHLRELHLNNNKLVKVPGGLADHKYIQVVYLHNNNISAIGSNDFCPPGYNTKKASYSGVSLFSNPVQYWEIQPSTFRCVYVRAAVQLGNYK

Binder	Kd [nM]
B1	14.6
B2	21.8
B3	7.6
B4	18.3
B5	29.5
B6	8
B7	3.5
B8	5.7
